Laboratory results published in US20170233441A1.

What was measured:
[1] = biological target: BG505 SOSIP.664 HIV-1 Env ectodomain trimer (HIV-1 strain BG505); test: crystal structure, interfaces between protomers
[2] = biological target: gp120 subunit of BG505 SOSIP.664 (HIV-1 strain BG505); test: crystal structure, interfaces between protomers
[3] = biological target: gp41 ectodomain subunit of BG505 SOSIP.664 (HIV-1 strain BG505); test: crystal structure, interfaces between protomers
[4] = biological target: gp120 subunit of BG505 SOSIP.664 (HIV-1 strain BG505); test: crystal structure; includes 216 Å^2 from glycan-protein interactions
[5] = biological target: BG505 SOSIP.664 trimer+sCD4 complex (HIV-1 strain BG505; human) (UniProt P01730)

Substance “BG505 SOSIP.664 HIV-1 Env ectodomain trimer” has a buried surface of the trimer interfaces, contributed by each protomer [1] of 3140 Å^2.

gp120 subunit of BG505 SOSIP.664 showed a buried surface of the gp120-gp120 trimer interface [2] of 861 Å^2 and a buried surface of the gp120-gp41 interface between protomers [3] of 360 Å^2.

“gp41 ectodomain subunit of BG505 SOSIP.664” gave a buried surface within a single protomer [4] of 5270 Å^2 and a buried surface of the gp41-gp41 trimer interface [3] of 1920 Å^2.

3074 antibody showed a t1/2 of CD4-induced exposure of the epitope [5] of 4.2 h.
